The record followed here is patent US20240277845A1 (XYPHOS BIOSCIENCES, published 2024).

The term Kd denotes the concentration at which binding is half-saturated. A lower Kd goes with tighter binding. Broadly, the EC50 (read off the curve) is the midpoint of the concentration-response curve. A high value points to weaker potency.

B3: Fc-iNKG2D.YA (Fc fusion, human, not shown: a dimerising Fc or GST)
chain: IEGRFLNSLFNQEVQIPLTESYCGPCPKNWICYKNNCYQFFDESKNWYESQASCMSQNASLLKVYSKEDQDLLKLVKSAHWMGLVHIPTNGSWQWEDGSILSPNLLTIIEMQKGDCALYASSFKGYIENCSTPNTYICMQRTV
notes: range 78-216; also called Y152A mutant

Assay [1] deals with B3. Nature of the assay: Octet BLI; Fc-iNKG2D.YA captured on AHC tips, two-fold dilution series of MicAbody from 50 nM. The protocol:
(§1) YA were captured with anti-human IgG Fc capture (AHC) biosensor tips then associated with a two-fold dilution series of MicAbody starting at 50 nM. The y-axes corresponding to binding responses were set to the same scale for all sensograms.

The target of assay [2] is T1, mouse NKG2D (mouse, UniProt O54709 94-232, limits assumed).
T1 construct: also called mouse wild-type NKG2D
T1 sequence (looked up): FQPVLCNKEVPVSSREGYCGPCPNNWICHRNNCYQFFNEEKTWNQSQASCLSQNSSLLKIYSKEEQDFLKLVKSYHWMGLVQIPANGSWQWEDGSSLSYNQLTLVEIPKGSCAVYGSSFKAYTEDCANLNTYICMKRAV
Briefly: ELISA on mouse NKG2D, MicAbody titrated; y axis 'Mouse NKG2D binding' (absorbance).

The target in assay [3] is B3. Nature of the assay: ELISA; wells coated with Fc-iNKG2D.YA, Rituximab.LC-U2S3 titrated.
In assay [4] the target is B3. Briefly: ELISA; 'iNKG2D.YA capture; CD20(Rit)-MicAb titration; anti-kappa-HRP detection'. A general note: ELISA stands for enzyme-linked immunosorbent assay.
Assay [5] addresses T2, Fc-wtNKG2D (human, UniProt P26718 78-216).
T2 construct: range 78-216; NKG2D ectodomain fused to the C-terminus of human IgG1 Fc; dimeric secreted protein; biotinylated in some ELISAs; also called wild-type NKG2D; Fc-NKG2D
T2 sequence: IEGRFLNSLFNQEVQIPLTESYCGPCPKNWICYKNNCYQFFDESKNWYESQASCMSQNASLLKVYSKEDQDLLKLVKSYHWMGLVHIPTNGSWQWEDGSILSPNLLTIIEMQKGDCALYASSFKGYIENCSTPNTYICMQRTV
Briefly: ELISA on wild-type NKG2D (FIG. 19); ELISA on wild-type NKG2D (FIG. 19), Rituximab light-chain fusion.

The target in assay [6] is T3, ULBP1-Fc (UniProt Q9BZM6 26-216).
T3 construct: Bought reagent; also called Ligand-Fc fusion (R&D Systems); not shown: Fc of the bought fusion, not described
T3 sequence (looked up): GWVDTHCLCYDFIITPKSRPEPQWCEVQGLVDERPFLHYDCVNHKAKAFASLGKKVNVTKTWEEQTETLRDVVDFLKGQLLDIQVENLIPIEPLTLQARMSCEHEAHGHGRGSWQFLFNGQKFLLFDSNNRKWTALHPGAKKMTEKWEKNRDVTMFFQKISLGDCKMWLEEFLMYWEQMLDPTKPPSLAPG
Nature of the assay: ELISA; ligand-Fc coated, biotinylated Fc-iNKG2D.YA titrated, streptavidin-HRP; x axis printed as 'nM ligand-Fc'.

Assay [7] has as its target T4, MICA-Fc (UniProt Q29983 24-308).
T4 construct: Bought reagent; also called Ligand-Fc fusion (R&D Systems); not shown: Fc of the bought fusion, not described
The assay is described as above.

Assay [8] addresses T5, ULBP2-Fc (UniProt Q9BZM5 26-217).
T5 construct: Bought reagent; also called Ligand-Fc fusion (R&D Systems); not shown: Fc of the bought fusion, not described
T5 sequence (looked up): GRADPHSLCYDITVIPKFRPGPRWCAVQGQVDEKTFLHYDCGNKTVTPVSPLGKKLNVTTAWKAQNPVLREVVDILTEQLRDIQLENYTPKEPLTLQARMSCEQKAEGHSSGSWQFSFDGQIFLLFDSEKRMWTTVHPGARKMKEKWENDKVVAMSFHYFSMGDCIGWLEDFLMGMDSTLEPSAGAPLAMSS
Described as above.

The target of assay [9] is T6, ULBP3-Fc (UniProt Q9BZM4 30-217).
T6 construct: Bought reagent; also called Ligand-Fc fusion (R&D Systems); not shown: Fc of the bought fusion, not described
T6 sequence (looked up): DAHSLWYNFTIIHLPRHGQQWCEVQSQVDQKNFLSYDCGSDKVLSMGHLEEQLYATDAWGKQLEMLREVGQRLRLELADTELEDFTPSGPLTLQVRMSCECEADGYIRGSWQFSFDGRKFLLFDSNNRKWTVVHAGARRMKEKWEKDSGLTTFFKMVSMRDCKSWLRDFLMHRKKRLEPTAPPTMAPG
Described as above.

The target of assay [10] is T7, ULBP4-Fc (UniProt Q8TD07 31-225, limits assumed).
T7 construct: Bought reagent; also called Ligand-Fc fusion (R&D Systems); not shown: Fc of the bought fusion, not described
T7 sequence (looked up): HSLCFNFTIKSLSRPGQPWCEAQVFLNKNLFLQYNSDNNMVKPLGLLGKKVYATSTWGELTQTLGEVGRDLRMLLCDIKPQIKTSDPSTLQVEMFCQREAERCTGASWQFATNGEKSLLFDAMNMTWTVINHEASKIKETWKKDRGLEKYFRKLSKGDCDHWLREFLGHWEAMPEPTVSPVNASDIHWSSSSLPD
The description is as above.

The target in assay [11] is T8, MICB-Fc (UniProt Q29980 23-298, limits assumed).
T8 construct: Bought reagent; also called Ligand-Fc fusion (R&D Systems); not shown: Fc of the bought fusion, not described
T8 sequence (looked up): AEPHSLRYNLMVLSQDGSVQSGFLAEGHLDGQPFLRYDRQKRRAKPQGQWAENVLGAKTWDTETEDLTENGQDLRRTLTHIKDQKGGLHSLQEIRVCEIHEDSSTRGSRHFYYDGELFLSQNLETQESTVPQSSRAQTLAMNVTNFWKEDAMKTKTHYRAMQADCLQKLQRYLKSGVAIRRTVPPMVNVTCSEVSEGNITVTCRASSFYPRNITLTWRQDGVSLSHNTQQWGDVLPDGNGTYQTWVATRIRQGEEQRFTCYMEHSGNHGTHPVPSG
Described as above.

Assay [12] deals with T2, Fc-wtNKG2D. Nature of the assay: Octet BLI; Fc-wtNKG2D captured on AHC tips, two-fold dilution series from 50 nM. The protocol: as §1
Assay [13] deals with B3. Briefly: Octet BLI; Fc-iNKG2D.YA captured on AHC tips, two-fold dilution series from 50 nM. The protocol:
as §1

Assay [14] has as its target T2, Fc-wtNKG2D. Briefly: Octet BLI; Fc-wtNKG2D captured on AHC tips, dilution series of His-tagged monomeric ligand. (In general: In BLI a coated tip is dipped into the sample, and binding shifts an interference pattern.)
The target in assay [15] is B3. Nature of the assay: Octet BLI; Fc-iNKG2D.YA captured on AHC tips, dilution series of His-tagged monomeric ligand.
For assay [16], the target named is B3. Nature of the assay: Octet BLI, Fc-iNKG2D.YA on AHC tips, His-tagged monomer (FIG. 4C).

T4 sequence (Q29983 24-308 limits assumed): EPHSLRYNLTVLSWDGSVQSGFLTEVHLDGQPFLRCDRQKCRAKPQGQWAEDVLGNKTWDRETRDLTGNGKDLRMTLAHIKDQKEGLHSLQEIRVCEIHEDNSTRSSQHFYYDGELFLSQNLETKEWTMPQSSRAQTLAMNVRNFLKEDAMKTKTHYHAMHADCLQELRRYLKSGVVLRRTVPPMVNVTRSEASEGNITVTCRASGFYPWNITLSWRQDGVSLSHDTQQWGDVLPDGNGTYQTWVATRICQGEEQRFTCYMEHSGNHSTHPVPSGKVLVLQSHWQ

B1: Rituximab.LC-U2S3 MicAbody (bispecific antibody, human IgG1, kappa, N297A)
heavy: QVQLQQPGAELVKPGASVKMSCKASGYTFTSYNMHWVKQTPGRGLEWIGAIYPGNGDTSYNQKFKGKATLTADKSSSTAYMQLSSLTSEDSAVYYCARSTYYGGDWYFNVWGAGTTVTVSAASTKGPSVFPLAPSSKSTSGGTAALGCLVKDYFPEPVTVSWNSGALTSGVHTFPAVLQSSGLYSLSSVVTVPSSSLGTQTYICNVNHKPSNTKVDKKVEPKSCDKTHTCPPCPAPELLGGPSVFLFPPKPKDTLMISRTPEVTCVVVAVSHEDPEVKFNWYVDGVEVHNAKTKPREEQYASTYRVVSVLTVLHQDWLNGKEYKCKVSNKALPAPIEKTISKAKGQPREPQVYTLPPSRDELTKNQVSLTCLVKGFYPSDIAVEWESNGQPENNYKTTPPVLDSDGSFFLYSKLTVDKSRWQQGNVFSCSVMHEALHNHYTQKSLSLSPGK
light: QIVLSQSPAILSASPGEKVTMTCRASSSVSYIHWFQQKPGSSPKPWIYATSNLASGVPVRFSGSGSGTSYSLTISRVEAEDAATYYCQQWTSNPPTFGGGTKLEIKRTVAAPSVFIFPPSDEQLKSGTASVVCLLNNFYPREAKVQWKVDNALQSGNSQESVTEQDSKDSTYSLSSTLTLSKADYEKHKVYACEVTHQGLSSPVTKSFNRGECAPTSSSGGGGSEPHSLSYDITVIPKFRPGPRWCAVQGQVDEKTFLHYDCGNKTVTPVSPLGKKLNVTTAWKAQNPVLREVVDILTEQLWDIQLENYTPKEPLTLQARMSCEQKAEGHSSGSWQFSFDGQIFLLFDSEKRMWTTVHPGARKMKEKWENDKVVATKLYLWSMGDCIGWLEDFLMGMDSTLEPS
notes: also called Rit-S3; Rit.S3
In assay [1], B1 returned an equilibrium dissociation constant (Kd) of 0.01 nM. Further, the concentration for a half-maximal effect (EC50 (read off the curve)) in [2] was around 40 nM; in [3], around 0.03 nM; in [4], around 0.06 nM.

B2: Rituximab light-chain fusion of U2S3 (NQ) (bispecific antibody)
heavy: QVQLQQPGAELVKPGASVKMSCKASGYTFTSYNMHWVKQTPGRGLEWIGAIYPGNGDTSYNQKFKGKATLTADKSSSTAYMQLSSLTSEDSAVYYCARSTYYGGDWYFNVWGAGTTVTVSAA
light: QIVLSQSPAILSASPGEKVTMTCRASSSVSYIHWFQQKPGSSPKPWIYATSNLASGVPVRFSGSGSGTSYSLTISRVEAEDAATYYCQQWTSNPPTFGGGTKLEIKRTVAAPSVFIFPPSDEQLKSGTASVVCLLNNFYPREAKVQWKVDNALQSGNSQESVTEQDSKDSTYSLSSTLTLSKADYEKHKVYACEVTHQGLSSPVTKSFNRGECAPTSSSGGGGSEPHSLSYDITVIPKFRPGPRWCAVQGQVDEKTFLHYDCGQKTVTPVSPLGKKLQVTTAWKAQNPVLREVVDILTEQLWDIQLENYTPKEPLTLQARMSCEQKAEGHSSGSWQFSFDGQIFLLFDSEKRMWTTVHPGARKMKEKWENDKVVATKLYLWSMGDCIGWLEDFLMGMDSTLEPS
notes: also called Rit.NQ; Rit.S3.NQ; not shown: human IgG1 heavy-chain constant region, ADCC-deficient
Consider B2, for which the binding result in [5] is given as “no binding”. For the same molecule, in assay [4], the “EC50 (read off the curve)” value was around 0.04 nM.

Regarding B3, the binding result in assay [6], in assay [7], in assay [8], in [9], in [10] and in [11] was “no binding (tested: about 2000 nM)” throughout.

B4: Rituximab antibody (ADCC-deficient) (antibody, V domains shown)
VH: QVQLQQPGAELVKPGASVKMSCKASGYTFTSYNMHWVKQTPGRGLEWIGAIYPGNGDTSYNQKFKGKATLTADKSSSTAYMQLSSLTSEDSAVYYCARSTYYGGDWYFNVWGAGTTVTVSA
VL: QIVLSQSPAILSASPGEKVTMTCRASSSVSYIHWFQQKPGSSPKPWIYATSNLASGVPVRFSGSGSGTSYSLTISRVEAEDAATYYCQQWTSNPPTFGGGTKLEIK
notes: also called parent rituximab antibody; Rit.P; not shown: human IgG1 heavy-chain constant region, ADCC-deficient
Consider B4, for which the binding result in assay [12] and in [13] was “no binding (tested: 50 nM)” throughout.

B5: His-tagged monomeric U2S3 (ligand)
chain: EPHSLSYDITVIPKFRPGPRWCAVQGQVDEKTFLHYDCGNKTVTPVSPLGKKLNVTTAWKAQNPVLREVVDILTEQLWDIQLENYTPKEPLTLQARMSCEQKAEGHSSGSWQFSFDGQIFLLFDSEKRMWTTVHPGARKMKEKWENDKVVATKLYLWSMGDCIGWLEDFLMGMDSTLEPHHHHHH
notes: also called orthogonal U2S3 ligand
In the case of B5, the binding result in assay [14] is reported as “no binding (tested: not printed on the sheet)”. Further, the Kd in [15] came to 28 nM. In assay [16], the “fold higher affinity than wild-type ULBP2 to wtNKG2D” value worked out at 10 fold.
